Experimental data taken from patent publication US7049400.

Biological target: MD9 (mammalian version of D9 mutant, EGFP-DEVD) (Aequorea victoria (Water jellyfish) (Mesonema victoria)) [GFP: P42212]
Assay: cell-based or functional assay

- decrease in relative fluorescence intensity of mutant GFP in comparison to wild type GFP: 50%
Substance: activated caspase-3 in HeLa cells induced to apoptosis by TNFα and cycloheximide (from UniProt P42574 29-277) (enzyme)
